Assay results: patent US20230093399A1, “METHODS FOR GENERATING PLURIPOTENT STEM CELL-DERIVED BROWN FAT CELLS” (AgeX Therapeutics, Inc., priority 2013, published 2023)

How the values were obtained:
[1] = tested on: cell line E72; assay: Differentiation of cell line E72 in HyStem, gene expression; assay type: cell-based, human
Description: (§1) HyStem-C (BioTime, Inc. Alameda, Calif.) (BioTime, Alameda, Calif., USA) was reconstituted following the manufacturer's instructions. Briefly, the HyStem component (thiol modified hyaluronan, 10 mg) was dissolved in 1.0 ml degassed deionized water for about 20 minutes to prepare a 1% w/v solution. The Gelin-S component (thiol modified gelatin, 10 mg) was dissolved in 1 ml degassed deionized water to prepare a 1% w/v solution, and PEGDA (PEG diacrylate, 10 mg) was dissolved in 0.5 ml degassed deionized water to prepare a 2% w/v solution. HyStem (1 ml, 1% w/v) was mixed with Gelin-S (1 ml, 1% w/v) immediately before use. Pelleted cells were resuspended in recently prepared HyStem:Gelin-S (1:1 v/v) mix described above. Upon the addition of crosslinker PEGDA, the cell suspension, at a final concentration of 2.0×10^7 cells/ml, was aliquoted at 25 μl aliquot four to five times into each well of 6 well plates (Corning 3516) after partial gelation to form attached beads. Following complete gelation (20 minutes), chondrogenic medium was added to each well (i.e about 4 ml/each well of a 6 well plate). […]
(§2) The Gelin-S® component (10 mg of thiol-modified gelatin (BioTime)) is dissolved in 1.0 ml of degassed deionized water to prepare a 1% w/v solution, and polyethylene glycol diacrylate (10 mg of PEGDA) is dissolved in 0.5 ml of degassed deionized water to prepare a 2% w/v solution. […] At the desired time point, hydrogel constructs were either fixed and processed for immunohistochemical analysis or lysed using RLT (Qiagen, CA, USA) with 1% beta-mercaptoethanol for total RNA to analyze transcript expression using quantitative real-time PCR (qRT-PCR) and/or whole-genome microarray.
(§3) Total RNA was extracted directly from cells growing in 6-well plates or 10 cm tissue culture dishes using Qiagen RNeasy mini kits according to the manufacturer's instructions. RNA concentrations were measured using a Beckman DU530 or Nanodrop spectrophotometer and RNA quality was determined by denaturing agarose gel electrophoresis or using an Agilent 2100 bioanalyzer. […] The cRNA was hybridized to Illumina BeadChips, processed, and read using a BeadStation array reader according to the manufacturer's instructions (Illumina, San Diego, Calif., USA).

[2] = tested on: cell line E75; assay: Differentiation of cell line E75 in HyStem, gene expression; assay type: cell-based, human
Description: as §1, §2, §3

B1: BMP4: Bone Morphogenetic Protein 4, TGF-beta superfamily member (protein, UniProt P12644 293-408, looked up)
Bone morphogenetic protein 4: SPKHHSQRARKKNKNCRRHSLYVDFSDVGWNDWIVAPPGYQAFYCHGDCPFPLADHLNSTNHAIVQTLVNSVNSSIPKACCVPTELSAISMLYLDEYDKVVLKNYQEMVVEGCGCR
markers normally associated with enamel, enamelin (ENAM) and amelogenin (AMELX) ([1]; E72, HyStem in the presence of BMP4 and TGFβ3): expressed the markers normally associated with enamel | markers of endochondral ossification including COL2A1, ALPL, IBSP, and osteopontin (SPP1) ([1]; E72 passage 11, 21 days in HyStem with 10 ng/mL TGFβ3 together with BMP4 (10 ng/mL) or BMP2 (50 ng/mL)): relatively high levels | adipocyte markers FABP4 and CD36 ([1]; E72 passage 12, 21 days in HyStem with 10 ng/mL BMP4): relatively high levels | ameloblastin (AMBN) expression ([2]; E75, 21 days HyStem, BMP4 and TGFβ3): expressed the additional marker normally associated with enamel called ameloblastin | markers normally associated with enamel, enamelin (ENAM) and amelogenin (AMELX) ([2]; E75, HyStem in the presence of BMP4 and TGFβ3): expressed the markers normally associated with enamel | adipocyte markers FABP4 and CD36 and candidate BAT cell progenitor markers such as C19orf80 ([2]; E75 passage 11, 21 days in HyStem with 10 ng/mL BMP4): relatively high levels | markers of endochondral ossification including COL2A1, ALPL, IBSP, and osteopontin (SPP1) ([2]; E75 passage 11, 21 days in HyStem with 10 ng/mL TGFβ3 together with BMP4 (10 ng/mL) or BMP2 (50 ng/mL)): relatively high levels
